For series [1], the system named is T1, TAS1 (Rh-based peptide/peptoid hybrid probe, Leu-Leu-Val-Tyr-Rh110-peptoid).
T1 sequence: LLVY

The test system of series [2] is T2, library peptide Leu-Leu-Val-Ala-Ala-Ala (negative control).
T2 sequence: LLVAAA

B1: 20S core particle (20S CP) of the proteasome, purified (enzyme, part only; not given: other 20S alpha and beta subunits)
chain: TTTLAFKFRHGVIVAADSRATAGAYIASQTVKKVIEINPYLLGTMAGGAADCSFWERLLARQCRIYELRNKERISVAAASKLLANMVYQYKGMGLSMGTMICGWDKRGPGLYYVDSEGNRISGATFSVGSGSVYAYGVMDRGYSYDLEVEQAYDLARRAIYQATYRDAYSGGAVNLYHVREDGWIRVSSDNVADLHEKYSGSTP
For the protein B1, the Rate of Hydrolysis (ΔRFU/min), probe at 30 µM with purified 20S CP in series [1] is 83.2 ΔRFU/min. Moreover, the “percent cleavage by LC/MS, 12 µM peptide with 9 nM 20S CP for one hour” value in series [2] is on record as “less than 10% of the peptide cleaved”.

(Values after patent publication US20230108494.)
